Measurements from publication PMC5118804.

Key:
[1] = molecular target: MS2V5-eIF4G 84-295 (eIF4G deletion mutant that only contains the interaction site for PABPC1) (UniProt Q04637)
[2] = molecular target: FLAGemGFP-tagged PAIP2 PAM2 (PAM2 motif of PABP-interacting protein 2)
[3] = molecular target: FLAGemGFP-tagged eRF3a PAM2 (overlapping N- and C-terminal PAM2 motifs of eukaryotic release factor 3a)
[4] = molecular target: FLAGemGFP-tagged eRF3a -N PAM2 (N-terminal PAM2 motif of eRF3a)
[5] = molecular target: FLAGemGFP-tagged eRF3a -C PAM2 (C-terminal PAM2 motif of eRF3a)
[6] = molecular target: FLAGemGFP-tagged PAIP2 PAM2 (PAM2 motif of PABP-interacting protein 2); remark: listed apart in the source

Sequence of UniProt Q04637 (Q04637 84-295, stated change not applied): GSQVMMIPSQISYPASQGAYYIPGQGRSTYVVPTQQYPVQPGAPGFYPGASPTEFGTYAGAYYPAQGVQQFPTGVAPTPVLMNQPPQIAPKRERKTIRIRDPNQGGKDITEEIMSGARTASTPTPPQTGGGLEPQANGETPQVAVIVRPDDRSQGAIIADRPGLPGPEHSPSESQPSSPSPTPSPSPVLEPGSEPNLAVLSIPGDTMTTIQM

- reporter mRNA level (TPI-4MS2 reporter with the SMG5 3' UTR, Northern blot, HeLa) upon tethering MS2V5-eIF4G 84-295, relative to MS2V5-GST [1]: 5 fold
- reporter mRNA level (TPI-4MS2 reporter with the SMG5 3' UTR, Northern blot, HeLa) upon tethering MS2V5-PAIP2 PAM2, relative to MS2V5-SYNZIP 1 (Fig. 2c) [2]: 4 fold
- reporter mRNA level (FLAG-TPI-4MS2-SMG5, Northern blot, HeLa) upon tethering the MS2V5-tagged overlapping eRF3a PAM2 motif, relative to MS2V5-GST (Fig. 3b) [3]: 5 fold
- reporter mRNA level (FLAG-TPI-4MS2-SMG5, Northern blot, HeLa) upon tethering the MS2V5-tagged N-terminal eRF3a PAM2 motif (Fig. 3b) [4]: 5 fold
- reporter mRNA level (FLAG-TPI-4MS2-SMG5, Northern blot, HeLa) upon tethering the MS2V5-tagged C-terminal eRF3a PAM2 motif (Fig. 3b) [5]: 5 fold
- reporter mRNA level (beta-globin 4MS2/4PP7 double tethering reporter, Northern blot, HeLa) upon tethering MS2V5-PAIP2 PAM2 upstream of PP7-tethered BTZ, relative to GST upstream of BTZ (Fig. 5d) [6]: 8 fold
- reporter mRNA level (beta-globin 4MS2/4PP7 double tethering reporter, Northern blot, HeLa) upon tethering MS2V5-PAIP2 PAM2 upstream of PP7-tethered RNPS1, relative to GST upstream of RNPS1 (Fig. 5c) [6]: 6 fold
Substance: cytoplasmic poly(A)-binding protein (PABPC1) (from UniProt P11940 1-636) (natural protein)
